This assay deals with T1, human APRIL (A Proliferation Inducing Ligand) (human, UniProt O75888 105-250).
T1 construct: No catalogue number is printed; also called hAPRIL; source: bought: R&D Systems
T1 sequence (looked up): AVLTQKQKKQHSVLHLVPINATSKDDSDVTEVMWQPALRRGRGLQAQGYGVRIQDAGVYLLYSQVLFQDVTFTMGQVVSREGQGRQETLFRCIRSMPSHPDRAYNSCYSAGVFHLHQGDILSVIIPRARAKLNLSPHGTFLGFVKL
In words: SPR; blocking assay, Biacore T200; human BCMA-rFc immobilised; 1 µM 1-E6 (affibody-His6) or running buffer injected first, then 100 nM APRIL or 25 nM belantamab; PBS-T. The following applies: both partners purified. Background: SPR reads the build-up and loss of mass on a sensor chip optically.

The record followed here is article PMC12154184, “An Anti-BCMA Affibody Affinity Protein for Therapeutic and Diagnostic Use in Multiple Myeloma” (International Journal of Molecular Sciences, 2025).

B1: recombinant human BCMA extracellular domain fused to the Fc portion of rabbit IgG (BCMA-rFc) (Fc fusion, UniProt Q02223 5-50, looked up)
chain: AGQCSQNEYFDSLLHACIPCQLRCSSNTPPLTCQRYCNASVTNSVK
notes: human B Cell Maturation Antigen (BCMA, TNFRSF17, CD269), residues 5-50 containing the ECD as told in the results; the methods give residues 1-54 of UniProt Q02223 for the biotinylated selection antigen (cat. no. 10620-H03H-B); no range is printed for 10620-H15H itself; The discussion speaks of 45 residues; also called human BCMA-rFc; immobilised BCMA; source: bought: Sino Biological (cat. no. …)
In the case of B1, the binding result is given as “binds”.
